Drawing on article PMC3764172, this text covers binding for 5 sequences.

This series has as its target T1, PGN_0753 (HaeR) response regulator, His6-tagged (Porphyromonas gingivalis ATCC 33277) (UniProt B2RIS7).
T1 sequence: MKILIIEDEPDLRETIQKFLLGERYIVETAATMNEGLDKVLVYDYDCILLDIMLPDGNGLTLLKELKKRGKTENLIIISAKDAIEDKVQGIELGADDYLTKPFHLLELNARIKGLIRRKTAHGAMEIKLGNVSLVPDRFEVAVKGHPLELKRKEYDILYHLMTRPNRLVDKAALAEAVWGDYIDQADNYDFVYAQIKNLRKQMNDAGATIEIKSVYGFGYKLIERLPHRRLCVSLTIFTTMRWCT
In words: EMSA. For orientation: In EMSA bound probe runs differently from free probe, usually more slowly.
For the sequence “CATTTTGATGAAATTAGAATATGATTTTACTGTGTAGTACCCCTTCTGTATTTATGCATTATAAAGTCTTCTTGGGAGACAAAATTCACATAGAAACCGAAAGAAATACCACAATCGCAAATATATGCACTTTTCCTTTAAACGCGAATCAAAATATGCATAATATATTGCCCAAAAGCTGTCATTCGGATTGATTGATGGCCTCATATTGGGTTTGCA (double strand) [rgpA (PGN_1970) promoter]”, the binding result was “binds”. To “CGTATCCGGGTTATACGATCTGTCGTTTGGATATTGAAAATCATTTCTATCGGAACTATACGCTCCATATCGGTGCGGAGAACCTGTTCGATTATAAACCCAAAGCATTGGCATTCAATTCCCCGACATCACCCGGACGTATCATATACGGGTTGGTTCGGATCACTTTCTAATACGACTTATTTGCAACAGAAATATAATTCGCCACG (double strand) [hmuS upstream region]” belongs “binds”; to “CCCTTGTCGCTTATATTGAAAACATGTTCTTTATAATCCGATACTCTTCTTAAATCGAATTTTTTCTCTAAATTGCGCCGCAACAAAACTCCTTGAGAAAAGTACCAATAGAAATAGAAGGTAGCATTTTGCCTTTAAATTCCTTTTCTTTTCTTGGATTGTTCTTGAAATGAATCTTATTTGTGGATCTTTTTTGTTTTTTTAACCCGGCCGTGGTTCTCTGAATCACGACCATAAATTGTTTTAAAGT (double strand) [kgp (PGN_1728) promoter]”, “binds”; to “TAGCGTCATTCTTTTCATAGACTTTTCTTTTGCGTTAAACTTAAAATTATTACTGTTATGTTGTTTTCTTTTCTTCTCCGGTTTTACCCTAACCAAGGGAAGTCTCAAAAAGCCGCTACCGGCGTTAGACACAAGTCACGAAACTTCCACAACTGTCCTATGATACGGACAGCCACAAAACTAAATAAAAAAATGCAACCAGACTAATCCTATTATCC (double strand) [ragA (PGN_0293) promoter]”, “binds”. To “TAAGTGATTGAAAGACTTCGTTTGCTGAGATTCGAGCAAATCGTCTTGGGACAAAGATATAAAAAAGTGCCACCGAATTTGCACCTCGTCCCCAAAACACAGGCGTAAAATATCCGCACATCCCGGGACTGCAAAGGGAGAGCATGCTATTTCAGGAAAAATTCAGTTTTACCATGTTATATTTGTAAAAGAAGATCAATCCAAACAGGGCTATCCAGATG (double strand) [haeR (PGN_0753) promoter]” belongs “binds”.
